{"source": "paper doi:10.1101/2020.07.07.192757v1", "about": "(biorxiv, 2020)", "molecules": {"B1": {"name": "AkPT1 (Angelica keiskei) (protein)", "chain": "MILILTSSFSLRPQHGFATSLQSQRTQIHNSNKYKEYKSVMDFLPIASISKCSFGNSYRYKLVREQKVHSPTFCAQSTNEEFILQQKNNHIITPPQSSLWKNVDVFLRFCRLHSIIGGIVGLISISLLPVTSLGDLSPGFFTGLLKAIIPMALINTYTSCLNQVTDVEIDKVNKPHFVLASGEYTMEQGKAIGAALALMAFIMGIYFNSPSLLLGLVAYFFVGTAYSVKLPLLRWKKNPFLAAFVIINILLIVPIVSFIHTQTYVLGRPLVFTKPFAFSLFGNTMFGIALALMKDIPDMEGDKAFGIQTFSLMHGKRKVFDICRSIMLTVYGSAMLIGTLSSSPLNKLITVLGHGALGCILWTRSQSLNLDDVPAVESFYMFSWKLFYAEYLLVHFLR"}, "B2": {"name": "CpPT1 (Citrus x paradisi) (protein)", "chain": "MLLQMNLCSSFSLKYHPLQQNGTVKTFQSPLTQIYGLANRRESNKYSVKGSIQSSFCLTNNKIGNNEDMMNRYHKPLKKSTVPMALQDDSATKSQNENIVSTSFLDFLTKKLDAFYRLSRPYAWTSIIVGILSSSLLPIQSLADLTPTFLIEVLKPIVPSIMMNIFVVAINQLSDIAIDKVNKPNLPLVSGDISIGEAIAIAVISTLTSLAMGVMLRSPPLVIALILRCILGAAYSIDLPLLRWKASPLMAAVAIVIGNGINNVLPYFLHVQKYVLGRPVVFTKPLLFAVAFSAIFSIVLSFLKDIPDVEGDKKSGIRTLPVILGKERVLSMSTGILLMAYASAALAGVFSPILLCKLVTMIGHSVLGFILWSKAQTVDLSNAKSTYSFFLFIFQLYYTEFFLMHFVR"}}, "key": {"CpPT1": {"target": "T1, CpPT1 (Citrus x paradisi, UniProt A0A810JZE7)", "T1 sequence (A0A810JZE7 1-408 limits assumed)": "B2 chain", "test": "geranyltransferase assay, LC product quantification, recombinant microsomes", "settings": "read-out: Apparent Km; co-substrate GPP; 10 mM MgCl2, pH 7.6, 28 °C"}, "AkPT1": {"target": "T2, AkPT1 (Angelica keiskei, UniProt A0A810JZD5)", "T2 sequence (A0A810JZD5 1-398)": "B1 chain", "test": "dimethylallyltransferase assay, HPLC, recombinant microsomes", "type": "cell-based", "settings": "read-out: Apparent Km; co-substrate DMAPP; 10 mM MgCl2, pH 8.0, 30 °C"}, "[1]": {"substrate": "CC(C)=CCOP(=O)(O)OP(=O)(O)O", "test": "dimethylallyltransferase assay, HPLC, recombinant microsomes", "type": "cell-based, Angelica keiskei", "settings": "co-substrate bergaptol, 10 mM MgCl2, pH 8.0, 30 °C"}, "[2]": {"substrate": "COc1cc(O)c2ccc(=O)oc2c1", "test": "cells, lysate or membranes", "settings": "co-substrate GPP, 10 mM MgCl2, pH 7.6, 28 °C"}, "[3]": {"substrate": "O=c1ccc2cc3ccoc3c(O)c2o1", "test": "cells, lysate or membranes", "settings": "co-substrate GPP, 10 mM MgCl2, pH 7.6, 28 °C"}, "[4]": {"substrate": "COc1c2ccoc2c(O)c2oc(=O)ccc12", "test": "cells, lysate or membranes", "settings": "co-substrate GPP, 10 mM MgCl2, pH 7.6, 28 °C"}, "[5]": {"substrate": "CC(C)=CCC/C(C)=C/COP(=O)(O)OP(=O)(O)O", "test": "cells, lysate or membranes", "settings": "co-substrate bergaptol, 10 mM MgCl2, pH 7.6, 28 °C"}, "[6]": {"substrate": "O=c1ccc2c(O)cc(O)cc2o1", "test": "cells, lysate or membranes", "settings": "co-substrate GPP, 10 mM MgCl2, pH 7.6, 28 °C"}}, "data": [{"molecule": "O=c1ccc2c(O)c3ccoc3cc2o1", "note": "[compound 12, Bergaptol]", "values": [{"measurement": "Km", "setting": "CpPT1", "value": "52 ± 4", "unit": "µM"}, {"measurement": "Km", "setting": "AkPT1", "value": "3.1 ± 0.3", "unit": "µM"}]}, {"molecule": "B1", "values": [{"measurement": "Km", "setting": "[1]", "value": "1.8 ± 0.1", "unit": "µM"}]}, {"molecule": "B2", "values": [{"measurement": "Km", "setting": "[2]", "value": "250 ± 30", "unit": "µM"}, {"measurement": "Km", "setting": "[3]", "value": "280 ± 20", "unit": "µM"}, {"measurement": "Km", "setting": "[4]", "value": "700 ± 100", "unit": "µM"}, {"measurement": "Km", "setting": "[5]", "value": "10 ± 1", "unit": "µM"}, {"measurement": "Km", "setting": "[6]", "value": "280 ± 30", "unit": "µM"}]}]}
